Substrate in data set [1]: CC(=O)Oc1cccc2ccccc12
In words: purified protein. Format: biochemical, Tetranychus urticae. The note with it: 0.1 M phosphate buffer pH 7.5, 1 µg enzyme, fast blue RR.

Substrate in data set [2]: CC(=O)Oc1ccc([N+](=O)[O-])cc1
Nature of the data set: purified protein. Format: biochemical, Tetranychus urticae. The note with it: 0.1 M phosphate buffer pH 7.5, 30 °C, 1 µg enzyme, 1% acetone.

B1: CCE58 (Tetranychus urticae) (protein)
chain: TISENVEPELTLSSGSIRGTSVDFRGVKVYQFLGIPFAEPPLNELRFQKPVSKKPWNGVLSVNKWGSACMQPVFPGYNTELHLNEDCLVLNVFTTEAAFQDKQNGKKHKLRPVMVWIHGGSFNYGSANTPDQHDGTPITGLKDVIIVSINYRLGSLGFLQLPEAGVPGNMGLWDQQLALKWVKDNIEHFGGDPNKVTIFGESAGSMSVSAHLVSPQSKGLFTNAIMQSGSIYDLDRWTQPGLVANFTSKIGCISDNYKSCLSNYRFGQFPEADRLTFWPTVDGEFLPHRAEELVSNHTVDPNINVLLGTNANEGAFMLLMKDMVTFHPLNPINLTIPHAKYIFGKLFGKTLIDFYSERYLASLSADDSDSIRLAVTQALGDSIFTCPTYATGRDLIASGVPNVYGYVQTQKPTHTLISVSGQAKWMSNIASHADTFPMVFGHPFNKLDKFKNEDVVLSFLMMDIWTKFAKDGKPPQISHQEWLPWNLSDPIPYPTMVLNSNKIGLIETKSAEFCAKNWPFPLENYYSMDSESGVYAEIE
notes: full-length MR-VL allele, signal peptide removed, codon-optimised, pPICZalphaA secretion in Pichia pastoris X-33, 6xHis tag, Ni-NTA purified, about 75 kDa on SDS-PAGE
On to B1, for which the Km in data set [1] is listed as 0.446 (±0.051) mM; in data set [2] it was 0.379 (±0.028) mM.

Source of the values: article PMC9687926, “High-Resolution Genetic Mapping Combined with Transcriptome Profiling Reveals That Both Target-Site Resistance and Increased Detoxification Confer Resistance to the Pyrethroid Bifenthrin in the Spider Mite Tetranychus urticae” (Biology, 2022).
